Assay [1] deals with T1, Chs5(1-299)/Bch1 exomer complex (S. cerevisiae (yeast), UniProt Q12114 1-299; Q05029 1-724).
T1 sequence 1: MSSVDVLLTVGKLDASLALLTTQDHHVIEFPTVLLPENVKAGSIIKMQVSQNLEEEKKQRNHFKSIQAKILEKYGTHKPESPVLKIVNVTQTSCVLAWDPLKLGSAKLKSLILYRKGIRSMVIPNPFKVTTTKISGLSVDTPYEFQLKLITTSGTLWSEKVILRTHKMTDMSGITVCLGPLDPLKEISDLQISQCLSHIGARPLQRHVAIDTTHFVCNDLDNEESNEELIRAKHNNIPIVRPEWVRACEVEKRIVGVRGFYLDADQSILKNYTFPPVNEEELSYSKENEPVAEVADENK
T1 sequence 2: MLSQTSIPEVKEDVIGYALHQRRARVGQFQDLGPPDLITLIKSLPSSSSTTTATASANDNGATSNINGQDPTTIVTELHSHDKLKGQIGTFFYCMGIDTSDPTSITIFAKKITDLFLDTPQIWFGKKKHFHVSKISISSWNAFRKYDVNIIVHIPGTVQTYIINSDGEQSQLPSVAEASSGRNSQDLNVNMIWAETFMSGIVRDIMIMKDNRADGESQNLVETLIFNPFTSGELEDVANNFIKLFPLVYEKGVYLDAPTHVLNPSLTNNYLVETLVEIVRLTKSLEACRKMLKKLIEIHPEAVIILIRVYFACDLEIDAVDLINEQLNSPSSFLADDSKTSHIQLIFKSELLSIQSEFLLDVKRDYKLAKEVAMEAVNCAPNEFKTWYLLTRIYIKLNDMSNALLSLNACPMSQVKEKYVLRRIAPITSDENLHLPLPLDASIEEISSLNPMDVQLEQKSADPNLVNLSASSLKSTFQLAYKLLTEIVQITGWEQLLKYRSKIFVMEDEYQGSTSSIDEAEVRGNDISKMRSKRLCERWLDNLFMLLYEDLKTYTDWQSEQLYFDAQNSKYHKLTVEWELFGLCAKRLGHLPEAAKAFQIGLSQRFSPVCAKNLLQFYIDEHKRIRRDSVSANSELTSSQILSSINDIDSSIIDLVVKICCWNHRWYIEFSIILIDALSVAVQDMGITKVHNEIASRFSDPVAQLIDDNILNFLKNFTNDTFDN
The experiment in a line: co-sedimentation.

The target of another assay is T2, Bch1 (S. cerevisiae (yeast), UniProt Q05029 1-724).
T2 sequence: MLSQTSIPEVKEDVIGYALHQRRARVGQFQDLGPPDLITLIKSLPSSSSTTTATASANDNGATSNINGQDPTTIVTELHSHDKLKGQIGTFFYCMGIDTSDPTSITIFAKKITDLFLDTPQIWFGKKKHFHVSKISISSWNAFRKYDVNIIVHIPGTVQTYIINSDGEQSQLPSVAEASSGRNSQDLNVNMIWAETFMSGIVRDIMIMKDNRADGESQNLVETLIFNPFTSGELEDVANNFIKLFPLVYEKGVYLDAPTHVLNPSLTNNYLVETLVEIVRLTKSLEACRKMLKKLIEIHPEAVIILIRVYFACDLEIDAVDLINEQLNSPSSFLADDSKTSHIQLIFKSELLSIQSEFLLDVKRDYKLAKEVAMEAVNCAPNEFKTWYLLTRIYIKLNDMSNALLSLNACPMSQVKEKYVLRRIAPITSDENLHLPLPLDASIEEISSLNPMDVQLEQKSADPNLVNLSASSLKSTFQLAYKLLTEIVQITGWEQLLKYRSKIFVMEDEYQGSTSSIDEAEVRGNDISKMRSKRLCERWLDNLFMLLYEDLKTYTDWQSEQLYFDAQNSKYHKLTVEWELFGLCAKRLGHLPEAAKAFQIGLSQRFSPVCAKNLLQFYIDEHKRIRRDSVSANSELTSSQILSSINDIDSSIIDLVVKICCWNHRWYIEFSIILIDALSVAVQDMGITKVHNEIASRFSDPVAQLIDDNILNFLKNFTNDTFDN
The experiment in a line: crystal structure.

Assay [2] has as its target T1, Chs5(1-299)/Bch1 exomer complex. Briefly: crystal structure.

B1: myristoylated Arf1-S98Y (natural protein, yeast, UniProt P11076 1-181, looked up)
chain: MGLFASKLFSNLFGNKEMRILMVGLDGAGKTTVLYKLKLGEVITTIPTIGFNVETVQYKNISFTVWDVGGQDRIRSLWRHYYRNTEGVIFVVDSNDRYRIGEAREVMQRMLNEDELRNAAWLVFANKQDLPEAMSAAEITEKLGLHSIRNRPWFIQATCATSGEGLYEGLEWLSNSLKNST
modifications: myristoylated
For the molecule B1, the binding result in assay [1] is listed as “binds”.

B2: ΔN17-Arf1-Q71L bound to GMPPNP (domain or fragment, S. cerevisiae (yeast), UniProt P11076 18-181, looked up)
chain: MRILMVGLDGAGKTTVLYKLKLGEVITTIPTIGFNVETVQYKNISFTVWDVGGLDRIRSLWRHYYRNTEGVIFVVDSNDRSRIGEAREVMQRMLNEDELRNAAWLVFANKQDLPEAMSAAEITEKLGLHSIRNRPWFIQATCATSGEGLYEGLEWLSNSLKNST
Regarding B2, in the assay with Bch1, the binding result is given as “binds”. Also, in assay [2], the “stoichiometry N” value is 2.

(Values after paper PMC4159615 (Developmental cell, 2014).)
